Key:
[1] = target: HLA-A*02:01; assay: IEDB peptide-MHC binding, purified MHC/competitive/radioactivity; filed as Kd, often an IC50 or EC50 that approximates it; ≥ and ≤ were set here for values at or beyond the usual limits of such assays
[2] = target: HLA-B*15:01; assay: as above
[3] = target: HLA-B*53:01; assay: as above
[4] = target: HLA-B*07:02; assay: as above
[5] = target: HLA-B*54:01; assay: as above
[6] = target: HLA-B*51:01; assay: as above
[7] = target: HLA-B*35:01; assay: as above
[8] = target: HLA-A*30:02; assay: as above; details: source organism: Dengue virus 4 Philippines/H241/1956
[9] = target: HLA-A*26:01; assay: as above; details: source organism: Dengue virus 4 Philippines/H241/1956
[10] = target: HLA-A*03:01; assay: IEDB peptide-MHC binding, purified MHC/competitive/fluorescence; filed as Kd, often an IC50 or EC50 that approximates it; ≥ and ≤ were set here for values at or beyond the usual limits of such assays
[11] = target: HLA-A*68:02; assay: IEDB peptide-MHC binding, purified MHC/competitive/radioactivity; filed as Kd, often an IC50 or EC50 that approximates it; ≥ and ≤ were set here for values at or beyond the usual limits of such assays
[12] = target: HLA-A*01:01; assay: as above; details: source organism: Dengue virus 4 Philippines/H241/1956
[13] = target: HLA-A*02:06; assay: as above
[14] = target: HLA-A*69:01; assay: IEDB peptide-MHC binding, purified MHC/direct/fluorescence; filed as Kd, often an IC50 or EC50 that approximates it; ≥ and ≤ were set here for values at or beyond the usual limits of such assays; details: source organism: Mycobacterium tuberculosis
[15] = target: HLA-A*02:12; assay: as above; details: source organism: Mycobacterium tuberculosis str. Haarlem
[16] = target: HLA-A*32:01; assay: IEDB peptide-MHC binding, purified MHC/competitive/radioactivity; filed as Kd, often an IC50 or EC50 that approximates it; ≥ and ≤ were set here for values at or beyond the usual limits of such assays; details: source organism: Vaccinia virus WR
[17] = target: HLA-A*11:01; assay: IEDB peptide-MHC binding, purified MHC/competitive/fluorescence; ≥ and ≤ were set here for values at or beyond the usual limits of such assays; details: source organism: Sudan ebolavirus
[18] = target: HLA-A*02:01; assay: as above; details: source organism: Sudan ebolavirus
[19] = target: HLA-A*24:02; assay: as above; details: source organism: Sudan ebolavirus
[20] = target: HLA-A*31:01; assay: IEDB peptide-MHC binding, purified MHC/competitive/radioactivity; filed as Kd, often an IC50 or EC50 that approximates it; ≥ and ≤ were set here for values at or beyond the usual limits of such assays; details: source organism: Vaccinia virus Copenhagen
[21] = target: HLA-A*33:01; assay: as above; details: source organism: Vaccinia virus Copenhagen
[22] = target: HLA-A*11:01; assay: as above; details: source organism: Vaccinia virus Copenhagen
[23] = target: HLA-A*68:01; assay: as above; details: source organism: Vaccinia virus Copenhagen
[24] = target: HLA-A*03:01; assay: as above; details: source organism: Vaccinia virus Copenhagen
[25] = target: HLA-A*02:02; assay: as above; details: source organism: Vaccinia virus Copenhagen
[26] = target: HLA-A*02:03; assay: as above; details: source organism: Vaccinia virus Copenhagen
[27] = source organism: Lassa virus Josiah
[28] = source organism: Vaccinia virus WR
[29] = source organism: Mammarenavirus whitewaterense
[30] = source organism: Dengue virus 4 Philippines/H241/1956
[31] = source organism: SARS coronavirus Tor2
[32] = source organism: Dengue virus 2 Jamaica/1409/1983
[33] = source organism: Mammarenavirus lassaense
[34] = source organism: Dengue virus 3 Martinique/1243/1999
[35] = source organism: Triticum aestivum
[36] = source organism: Vaccinia virus Copenhagen
[37] = source organism: Dengue virus 4 Dominica/814669/1981

Sequence: ALPRNMVIT
- Kd [1, 27]: 12500 nM

Sequence: AMIELCGAF
- Kd [2, 28]: 0.336 nM

Sequence: APTGGVVKI
- Kd [3, 29]: 10500 nM
- Kd [4, 29]: 1780 nM
- Kd [5, 29]: ≥ 78100 nM
- Kd [6, 29]: ≥ 57800 nM
- Kd [7, 29]: 9320 nM

Sequence: AVFKMSPGY
- Kd [8]: 82.2 nM
- Kd [2, 30]: 14.3 nM
- Kd [9]: 1920 nM

Sequence: CLLNYSGLK
- Kd ([10]; source organism: Escherichia coli O139:H28 str. E24377A): 27.8 nM

Sequence: CPASKKESVI
- Kd [3, 28]: 92.3 nM
- Kd [4, 28]: 7.12 nM
- Kd [5, 28]: 2410 nM
- Kd [6, 28]: 9310 nM
- Kd [7, 28]: ≥ 69900 nM

Sequence: CPAVAVHDF
- Kd [3, 31]: 27.6 nM
- Kd [4, 31]: 1640 nM
- Kd [5, 31]: 7480 nM
- Kd [6, 31]: 241 nM
- Kd [7, 31]: 14.4 nM

Sequence: CSAVPSHWV
- Kd [11, 32]: 9.21 nM

Sequence: ETALMVIGM
- Kd [11, 30]: 10.5 nM
- Kd [9]: 308 nM

Sequence: ETFSMGLLCL
- Kd [11, 30]: 6.59 nM
- Kd [12]: 7330 nM
- Kd [9]: 289 nM

Sequence: EVLTLATGPV
- Kd [11, 30]: 23.5 nM

Sequence: FIMIVGGLV
- Kd ([1]; source organism: HIV-1 M:B_MN): 382 nM

Sequence: FLDEFMEAV
- Kd ([1]; source organism: Homo sapiens): 8.3 nM

Sequence: FLLSLVEFF
- Kd [2, 28]: 0.816 nM

Sequence: FPYIMGSVEL
- Kd [3, 33]: 80.2 nM
- Kd [4, 33]: 241 nM
- Kd [5, 33]: 155 nM
- Kd [6, 33]: 368 nM
- Kd [7, 33]: 12.4 nM

Sequence: FTILALFLA
- Kd [13, 34]: 0.746 nM
- Kd [11, 34]: 35.5 nM

Sequence: GLLDVTDNV
- Kd [14]: 486 nM
- Kd [15]: 3 nM

Sequence: GPMPYMISTY
- Kd [3, 28]: 272 nM
- Kd [4, 28]: 886 nM
- Kd [5, 28]: 1500 nM
- Kd [6, 28]: ≥ 64700 nM
- Kd [7, 28]: 89.3 nM

Sequence: GSIGGVFTSV
- Kd ([11]; source organism: Dengue virus 1 Brazil/97-11/1997): 20.1 nM

Sequence: HINKLFSVF
- Kd [16]: 907 nM
- Kd [2, 28]: 0.915 nM

Sequence: HSIENSSVNV
- Kd [11, 32]: 30.9 nM

Sequence: IILAHFLYK
- Kd ([10]; source organism: Bacillus anthracis str. A0488): 12 nM

Sequence: IPEQSQCQAI
- Kd [3, 35]: 3890 nM
- Kd [4, 35]: 5900 nM
- Kd [5, 35]: ≥ 25600 nM
- Kd [6, 35]: 774 nM
- Kd [7, 35]: 6050 nM

Sequence: IPSLFIESSI
- Kd [3, 28]: 1980 nM
- Kd [4, 28]: 680 nM
- Kd [5, 28]: 429 nM
- Kd [6, 28]: 1900 nM
- Kd [7, 28]: ≥ 69900 nM

Sequence: IQRTVFFVL
- Kd [13, 30]: 12.3 nM
- Kd [2, 30]: 5.09 nM

Sequence: LAKKSYVVF
- Kd [2, 36]: 97.3 nM

Sequence: LEADYVESM
- Kd [2, 28]: 434 nM

Sequence: LIALSVLAVL
- Kd [1, 27]: 2780 nM

Sequence: LIWTLDANI
- IC50 [17]: ≥ 166000 nM
- IC50 [18]: 480 nM
- IC50 [19]: ≥ 80400 nM

Sequence: LLLKERGLK
- Kd ([10]; source organism: Vibrio vulnificus CMCP6): 29.6 nM

Sequence: LMDSIFVST
- Kd [20]: ≥ 36000 nM
- Kd [21]: ≥ 55300 nM
- Kd [22]: ≥ 77900 nM
- Kd [3, 36]: ≥ 78200 nM
- Kd [13, 36]: 31.2 nM
- Kd [4, 36]: ≥ 77500 nM
- Kd [11, 36]: 1790 nM
- Kd [5, 36]: 5200 nM
- Kd [23]: ≥ 77700 nM
- Kd [6, 36]: ≥ 77500 nM
- Kd [24]: ≥ 78000 nM
- Kd [7, 36]: ≥ 77400 nM
- Kd [25]: 0.343 nM
- Kd [26]: 232 nM

Sequence: LMYADDTAGW
- Kd [3, 37]: 46.1 nM
- Kd [2, 37]: 41.6 nM

Source: the Immune Epitope Database (IEDB)
